Data reported in paper doi:10.1101/2025.02.24.640013, “Exploration of the influence of environmental changes on the conformational and amyloidogenic landscapes of the zinc finger protein DPF3a by combining biophysical and molecular dynamics approaches” (bioRxiv, 2025).

Molecular target: the molecule itself
Assay: negative-stain TEM + far-UV CD + autofluorescence of amyloid fibril formation; tag-free DPF3a alone, ~4.5 uM (0.18 mg/mL), incubated at ~25 °C for seven days in 50 mM Tris-HCl pH 8, 150 mM NaCl (reference); also at pH 12 in 150 mM NaCl and at pH 8 in 300 and 500 mM NaCl, where fibrils formed later, shorter and in lower number

B1: double PHD fingers 3 (DPF3) protein, isoform DPF3a, full-length (natural protein, human, UniProt Q92784-2 1-357, looked up)
chain: MATVIHNPLKALGDQFYKEAIEHCRSYNSRLCAERSVRLPFLDSQTGVAQNNCYIWMEKRHRGPGLAPGQLYTYPARCWRKKRRLHPPEDPKLRLLEIKPEVELPLKKDGFTSESTTLEALLRGEGVEKKVDAREEESIQEIQRVLENDENVEEGNEEEDLEEDIPKRKNRTRGRARGSAGGRRRHDAASQEDHDKPYVCDICGKRYKNRPGLSYHYAHTHLASEEGDEAQDQETRSPPNHRNENHRPQKGPDGTVIPNNYCDFCLGGSNMNKKSGRPEELVSCADCGRSAHLGGEGRKEKEAAAAARTTEDLFGSTSESDTSTFHGFDEDDLEEPRSCRGRRSGRGSPTADKKGSC
notes: Human DPF3, isoform DPF3a, full length; molecular mass 40244 Da; Metalloprotein with a C2H2 zinc finger; also called full-length DPF3a; source: E. coli BL21 Rosetta (DE3), purified (GSTrap FF, on-column TEV cleavage of the GST tag); not shown: GST, N-terminal, cleaved
binding result: binds
